Source: patent US20220356239A1 (JIANGSU HENGRUI MEDICINE, published 2022)
Residue numbers refer to the chain shown, from its start.

T1: Human IL-5 amino acid sequence with his tag (rhIL-5-his) (human, UniProt P05113 20-134)
T1 sequence: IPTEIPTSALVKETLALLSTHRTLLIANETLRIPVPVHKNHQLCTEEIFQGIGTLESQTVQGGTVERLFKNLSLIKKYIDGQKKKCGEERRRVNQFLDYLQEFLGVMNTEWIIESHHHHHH

B1: Hu39D10 (antibody, human IgG4 S228P, kappa, V domains shown)
VH: EVQLVESGGGLVQPGGSLRLSCAVSGLSLTSNSVNWIRQAPGKGLEWVGLIWSNGDTDYNSAIKSRFTISRDTSKSTVYLQMNSLRAEDTAVYYCAREYYGYFDYWGQGTLVTVSS
VL: DIQMTQSPSSLSASVGDRVTITCLASEGISSYLAWYQQKPGKAPKLLIYGANSLQTGVPSRFSGSGSATDYTLTISSLQPEDFATYYCQQSYKFPNTFGQGTKVEVKR
B2: h1706-006 (antibody, human IgG1, kappa, V domains shown)
VH: EVQLVESGGGLVQPGGSLRLSCAASGFTFSHYYMAWVRQAPGKGLEWVSSINYEGNSAYYGDSVKGRFTISRDNSKNTLYLQMNSLRAEDTAVYYCATETLRESLDYWGQGTMVTVSS
VL: DIQMTQSPSSVSASVGDRVTITCRASQDIGNYLSWYQQKPGKSPKLLIYSASNLEVGVPSRFSGSGSGTDFTLTISSLQPEDFATYYCLQHKQFPRTFGGGTKVEIKR
B3: h1706-007 (antibody, human IgG1, kappa, V domains shown)
VH: B2 VH with S49T, V93T
VL: B2 VL
B4: h1705-007 (antibody, human IgG1, kappa, V domains shown)
VH: B2 VH with N52S, N56D, S57I, A58T, T98S, E99Q, L105F, M113L
VL: B2 VL with G30A, S50G, A51T, G66R, H91D, Q93E
B5: h1706-004 (antibody, human IgG1, kappa, V domains shown)
VH: B2 VH with S49T, V93T
VL: B2 VL with S43A
B6: h1705-008 (antibody, human IgG1, kappa, V domains shown)
VH: B2 VH with S49T, N52S, N56D, S57I, A58T, V93T, T98S, E99Q, L105F, M113L
VL: B2 VL with G30A, S50G, A51T, G66R, H91D, Q93E
B7: h1705-011 (antibody, human IgG1, kappa, V domains shown)
VH: B2 VH with S49T, N52S, N56D, S57I, A58T, V93T, T98S, E99Q, L105F, M113L
VL: B2 VL with G30A, L47V, S50G, A51T, G66R, T69S, F71Y, Y87F, H91D, Q93E
B8: h1705-005 (antibody, human IgG1, kappa, V domains shown)
VH: B2 VH with S49T, N52S, N56D, S57I, A58T, V93T, T98S, E99Q, L105F, M113L
VL: B2 VL with G30A, S43A, S50G, A51T, H91D, Q93E
B9: h1705-004 (antibody, human IgG1, kappa, V domains shown)
VH: B2 VH with N52S, N56D, S57I, A58T, T98S, E99Q, L105F, M113L
VL: B2 VL with G30A, S43A, S50G, A51T, H91D, Q93E
B10: h1706-009 (antibody, human IgG1, kappa, V domains shown)
VH: B2 VH
VL: B2 VL with L47M, F71Y, Y87F
B11: h1705-010 (antibody, human IgG1, kappa, V domains shown)
VH: B2 VH with N52S, N56D, S57I, A58T, T98S, E99Q, L105F, M113L
VL: B2 VL with G30A, L47V, S50G, A51T, G66R, T69S, F71Y, Y87F, H91D, Q93E
B12: h1706-003 (antibody, human IgG1, kappa, V domains shown)
VH: B2 VH
VL: B2 VL with S43A
B13: h1773-007 (antibody, human IgG1, kappa, V domains shown)
VH: EVQLVESGGGLVQPGGSLKLSCAASGFTISNTYIHWVKQASGKGLEWIGRIDPAVGDTKHGPKFQGRFTISADDSKNTAYLQMNSLKTEDTAVYYCFRYGIYPDHWGQGTLVTVSS
VL: DIQLTQSPSSLSASVGDRVTITCSASSSVNYIYWYQQKPGKSPKPWIYLTATLASGVPSRFSGSGSGTDFTLTISSLQPEDFATYYCQQWNSYPYTFGGGTKVEIKR
B14: h1780-017 (antibody, human IgG1, kappa, V domains shown)
VH: EVQLVQSGAEVKKPGASVKVSCKASGYTFTEYLIHWVRQAPGQGLEWIGYINPYSGGTVYNEKFKSRATLTVDKSISTAYMEFSRLRSDDTAVYYCARDGGYSDPLDYWGQGTMVTVSS
VL: DTVLTQSPATLSLSPGERATLSCRASEGLTSYMHWYQQKPGQAPRLLIYKASNLASGVPARFSGSGSGTDFTLTISSLEPEDFATYFCQQNWNDPWTFGGGTKVEIKR
B15: h1779-014 (antibody, human IgG1, kappa, V domains shown)
VH: EVQLVQSGAEVKKPGASVKVSCKASGYTFTDYIIHWVKQAPGQGLEWIGYFNPNSGGSNYNENFKRKATMTADKSISTAYLEFSRLRSEDTAVYYCARRIAWDHWYFDFWGQGTMVTVSS
VL: DIQMTQSPSSLSASVGDRVTITCLASEGISNDVAWYQQKPGKSPKLLIYAASRLQDGVPSRFSGSGSGTDFTFTISSLQPEDIATYYCQQGYKTPLTFGQGTKLEIKR
notes: h1779_VH.1D + h1779_VL.1A; IgG1 (YTE) / kappa constant regions

These binders were tested against T1, Human IL-5 amino acid sequence with his … (assay: cell-based or functional assay).

In order of falling “IC50 of inhibition of IL-5-induced proliferation of TF1 cells” value:
1. B13  0.38 nM
2. B2  0.34 nM
3. B12  0.31 nM
4. B1  0.3 nM
5. B5  0.3 nM
6. B8  0.3 nM
7. B9  0.3 nM
8. B11  0.3 nM
9. B3  0.28 nM
10. B7  0.28 nM
11. B4  0.25 nM
12. B10  0.25 nM
13. B6  0.2 nM
14. B15  0.2 nM
15. B14  0.16 nM

These binders were tested against T1, Human IL-5 amino acid sequence with his … (assay: FACS blocking of biotin-IL-5 binding to IL-5Rα/β CHO-S cells).
Description: Particular method: CHO-S-IL-5Rα and β were cultivated with CD-CHO containing […] and 25 ng/ml zeozin, and the concentration during cell culture was no more than 3×10⁶ cells/ml. The IL-5Rα/β-CHOS cells in good condition were centrifuged (1000 rpm, 5 min), washed once with 10% FBS in PBS, counted, the cell concentration was adjusted to 4×10⁶ cells/ml, and 25 μl of which was added to 96-well plate with round bottom. Antibodies to be tested were diluted with PBS solution containing 10% FBS, with an initial concentration of 200 μg/ml, and 8 gradients were obtained by 1:10 dilution. 25 μl of 100 ng/ml IL-5 labeled with Biotin Labeling Kit (Dojindo Chemical, LK03), was uniformly mixed with 50 μl of each diluted antibody, added into the 96-well plate to which the cells has been added, and incubated at 4° C. for 1 hour. After the incubation, centrifuged at 4° C. (400 g, 5 min), the supernatant was discarded, centrifuged and washed with 200 μl of pre-cooled PBS, repeat twice; PE-Avidin secondary antibody diluted at 1:1333 was added and incubated in darkness at […] for 40 min, the supernatant was discarded after being centrifuged at 4° C. […] The plate was read on instrument, and IC50 values for IL-5 antibodies to block the binding between IL-5 and IL-5Rα/β were calculated based on the fluorescence signal values.

For B15, the IC50 was 0.0496 µg/mL.

The binders below were run against T1, Human IL-5 amino acid sequence with his … (assay: Biacore T200 SPR, antibody captured on Protein A chip, antigen in flow, 1:1 Langmuir fit).
Description: The affinity between the test humanized IL-5 antibodies and human IL-5 was determined by using Biacore T200 (GE) instrument.
Molecules to be tested were affinity-captured by Protein A biosensor chip, and then the antigen (prepared in Example 1) was flowed through the surface of the chip, and the reaction signals were detected in real time by using Biacore T200 instrument to obtain binding and dissociation curves. After the dissociation of each cycle of experiment was completed, the biosensor chip was washed and regenerated with glycine-hydrochloric acid regeneration solution (pH 1.5). The data was fitted to the (1:1) Langmuir model by using BIAevaluation version 4.1 GE software, and the affinity values were obtained as shown in Table 14.

Work on B15 yielded a Kd of 0.412 nM.

Target: T1, Human IL-5 amino acid sequence with his …
Assay: cell-based or functional assay
Remark: another data set of the same source

In order of rising “IC50 of blocking IL-5-induced eosinophil adhesion” value:
1. B10  4.3 ng/mL
2. B6  4.85 ng/mL
3. B1  11.8 ng/mL
4. B14  21.2 ng/mL
